Reference: patent US20060246095A1, “Multiepitope polypeptides for cancer immunotherapy” (HADASIT MEDICAL RESEARCH SERVICES & DEVELOPMENT LTD., priority 2003, published 2006)

Tests used:
[1] = LTB-MEP fusion protein functional assay (GM1 ganglioside ELISA, anti-MEP detection); format: binding; details: GM1 ganglioside coated plates, chicken anti-MEP antibodies
Experimental: LTB-MEP fusion protein expressed by the recombinant pQE30-LTB-MEP construct was tested for its ability to bind GM1 ganglioside and anti-MEP antibodies. LTB-MEP fusion protein was incubated in ELISA plates coated with GM1 ganglioside (which binds to native LTB) with chicken anti-MEP antibodies.
Only LTB-MEP molecules with functional LTB and MEP units can be detected by this assay. Boiled LTB-MEP protein losses its capability to bind to GM1 ganglioside and therefore could not be detected.
A BamHI-HindIII fragment encoding for MEP (SEQ ID NO: 1) was attached to a KpnI-HindIII fragment encoding for LTB (SEQ ID NO: 52) through a polynucleotide linker. The ligated product was cloned into pQE30 vector and transformed into E. Coli (JM109 strain). LTB-MEP fusion protein expressed in bacteria, was purified and further characterized by ELISA assay. Ganglioside GM1 coated plates were incubated at 37° C. in the presence of native or boiled LTB-MEP fusion protein, purified LTB and pQE30 DNA expression vector (without insert) molecules. […] LTB molecule is sensitive to temperature and heat treatment destroys its capability to bind to GM1 ganglioside. Since binding detection was performed using chicken anti-MEP antibodies only active LTB-MEP fusion protein could be detected.

DC = DC maturation in vitro (preliminary data); format: cell-based
Description: A non-toxic form of LT (NLT) was produced by the present inventors. […] Thus, NLT and LTB could be developed as a delivery system for the presentation of tumor antigens to the immune system.

B1: Purified LTB (protein)
chain: APQTITELCSEYRNTQIYTINDKILSYTESMAGKREMVIITFKSGETFQVEVPGSQHIDSQKKAIERMKDTLRITYLTETKIDKLCVWNNKTPNSIAAISMKN
OD 450 nm ([1]; treatment 37° C.): 1.05 | OD 450 nm ([1]; treatment Boiled): 0.98 | DC maturation (DC): induce DC maturation in vitro
